Experiments:
murine IL-1β [1] = target: T1, murine IL-1β (mouse, UniProt P10749 118-269); assay: affinity, method not named for this table (Biacore elsewhere)
T1 construct: also called mIL-1β; mouse IL-1β
T1 sequence (looked up): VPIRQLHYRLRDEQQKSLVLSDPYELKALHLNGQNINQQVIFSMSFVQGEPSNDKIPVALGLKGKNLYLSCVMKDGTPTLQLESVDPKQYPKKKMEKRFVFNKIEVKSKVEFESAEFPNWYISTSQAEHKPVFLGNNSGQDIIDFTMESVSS

murine IL-1β [2] = target: T1, murine IL-1β; assay: cell-based or functional assay
recombinant human IL-1β [3] = target: T2, recombinant human IL-1β (human, UniProt P01584 117-269); assay: SPR (Biacore 3000), saturating binding
T2 construct: Recombinant protein; also called hIL-1β; rhIL-1β
Method: (§1) The association and dissociation rate constants, kon (M-1s-1) and koff (s-1) were determined under a continuous flow rate of 25 ml/minute. […] The equilibrium dissociation constant (M) of the reaction between DVD-Ig molecule and rhIL1α/β was then calculated from the kinetic rate constants by the following formula: KD=koff/kon. Aliquots of rhIL1α/β samples were also simultaneously injected over a blank reference and reaction CM surface to record and subtract any nonspecific binding background to eliminate the majority of the refractive index change and injection noise. Surfaces were regenerated with two subsequent […] injections of 10 mM Glycine (pH 1.5) at a flow rate of […]. The anti-Fc antibody immobilized surfaces were completely regenerated and retained their full capture capacity over twelve cycles. The apparent stoichiometry of the captured DVD-Ig-rhIL1α/β complex was calculated under saturating binding conditions (steady-state equilibrium) using the following formula: […]
(§2) The affinity of the two DVD-Ig binding proteins to hIL-1 as compared to the affinity of chimeric antibodies to hIL-1 was similar as indicated by the evaluation of the stoichiometry to IL-1. Both chimeric antibodies, being bivalent monospecific, bound to IL-1α and IL-1β on Biacore with a stoichiometry of 1.6 and 1.7, respectively. This is common for an IgG due to inter-molecular interference when antibodies are immobilized densely on the Biacore sense chip resulting in stoichiometry being in the range from 1.5 to 2.0.

recombinant human IL-1β [4] = target: T2, recombinant human IL-1β; assay: SPR (Biacore 3000), binder captured via goat anti-human IgG Fc
Method: (§3) Approximately, 5000 RU of goat anti-human IgG Fcγ fragment specific polyclonal antibody (Pierce Biotechnology Inc, Rockford, Ill.) diluted in 10 mM sodium acetate (pH 4.5) was directly immobilized across a CM5 research grade biosensor chip using a standard amine coupling kit according to manufacturer's instructions and procedures at […]. Unreacted moieties on the biosensor surface were blocked with ethanolamine. Modified carboxymethyl dextran surface in flowcell 2 and 4 was used as a reaction surface. Unmodified carboxymethyl dextran without goat anti-human IgG in flow cell 1 and 3 was used as the reference surface. For kinetic analysis, rate equations derived from the 1:1 Langmuir binding model were fitted simultaneously to association and dissociation phases of all ten injections (using global fit analysis) using the Bioevaluation 4.0.1 software. Purified DVD-Ig samples were diluted in HEPES-buffered saline for capture across goat anti-human IgG Fc specific reaction surfaces and injected over reaction matrices at a flow rate of […]. The association and dissociation rate constants, kon (M-1s-1) and koff (s-1) were determined under a continuous flow rate of 25 ml/minute. […] The equilibrium dissociation constant (M) of the reaction between DVD-Ig molecule and rhIL1α/β was then calculated from the kinetic rate constants by the following formula: KD=koff/kon. Aliquots of rhIL1α/β samples were also simultaneously injected over a blank reference and reaction CM surface to record and subtract any nonspecific binding background to eliminate the majority of the refractive index change and injection noise. Surfaces were regenerated with two subsequent […] injections of 10 mM Glycine (pH 1.5) at a flow rate of […]. The anti-Fc antibody immobilized surfaces were completely regenerated and retained their full capture capacity over twelve cycles. The apparent stoichiometry of the captured DVD-Ig-rhIL1α/β complex was calculated under saturating binding conditions (steady-state equilibrium) using the following formula: […]

recombinant human IL-1β [5] = target: T2, recombinant human IL-1β; assay: cell-based or functional assay
murine IL-1α [6] = target: T3, murine IL-1α (mouse, UniProt P01582 115-270); assay: affinity, method not named for this table (Biacore elsewhere)
T3 construct: also called mIL-1α; mouse IL-1α
T3 sequence (looked up): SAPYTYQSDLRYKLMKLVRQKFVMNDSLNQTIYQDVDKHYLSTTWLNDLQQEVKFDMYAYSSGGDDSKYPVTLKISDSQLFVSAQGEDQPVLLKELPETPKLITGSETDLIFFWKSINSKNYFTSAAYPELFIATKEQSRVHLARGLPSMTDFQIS

murine IL-1α [7] = target: T3, murine IL-1α; assay: cell-based or functional assay
recombinant human IL-1α [8] = target: T4, recombinant human IL-1α (human, UniProt P01583 113-271); assay: SPR (Biacore 3000), saturating binding
T4 construct: Purified recombinant protein bought from R&D Systems; also called hIL-1α; rhIL-1α
T4 sequence: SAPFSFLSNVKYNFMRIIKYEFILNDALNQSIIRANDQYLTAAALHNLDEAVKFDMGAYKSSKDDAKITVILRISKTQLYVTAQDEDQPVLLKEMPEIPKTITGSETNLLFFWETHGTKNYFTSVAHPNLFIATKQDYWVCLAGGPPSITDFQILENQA
Method: as §1, §2

recombinant human IL-1α [9] = target: T4, recombinant human IL-1α; assay: SPR (Biacore 3000), binder captured via goat anti-human IgG Fc
Method: as §3

recombinant human IL-1α [10] = target: T4, recombinant human IL-1α; assay: cell-based or functional assay
recombinant human IL-1α [11] = target: T4, recombinant human IL-1α; assay: SPR (Biacore), mAb captured via goat anti-mouse IgG
recombinant human IL-1α [12] = target: T4, recombinant human IL-1α; assay: cell-based or functional assay; remark: listed apart in the source
recombinant human IL-1α [13] = target: T4, recombinant human IL-1α; assay: SPR (Biacore)
recombinant human IL-1α [14] = target: T4, recombinant human IL-1α; assay: cell-based or functional assay; remark: listed apart in the source

B1: mouse anti-mouse IL-1β monoclonal antibody 10G11 (antibody, V domains shown)
VH: EVQLQQSGPELVKPGTSVKMSCKTSGYTFTSYVMHWVKQKPGQGLEWIGYIIPYNDNTKYNEKFKGKATLTSDKSSSTAYMELSSLTSEDSAVYYCARRNEYYGSSFFDYWGQGTTLTVSS
VL: DIQMTQSPASLSASVGETVTITCRGSGILHNYLVWYQQKQGKSPQLLVYSAKILADGVPSRFSGSGSGTQYSLKINSLQPEDFGSYYCQHFWSTPFTFGSGTKLEIKR
notes: Mouse mAb from IL-1αβ double KO mice; also called anti-IL-1β (10G11)
Kd (murine IL-1β [1]): 0.23 nM
IC50 (M), in vitro potency (murine IL-1β [2]): 3.7e-10 M

B2: chimeric 13F5.G5 antibody (antibody, V domains shown)
VH: QVQLQQSGAELVRPGSSVKISCKASGYAFSSYWMNWVKQRPGQGLEWIGQIYPGDGDTNYNGKFKGKATLTADKSSSTSYMQLSGLTSEDSAMYFCVRFPTGNDYYAMDYWGQGTSVTVSS
VL: NIVLTQSPASLAVSLGQRATISCRASESVDSYGNSYMHWYQQKPGQPPKLLIYLASNLESGVPARFSGSGSRTDFTLTIDPVEADDAATYYCQQNNEDPFTFGSGTKLEIKR
notes: Murine variable domains on human Cγ1 and human Cκ constant regions (13F5.G5-VH-Cγ1, 13F5.G5-VL-Cκ); also called 13F5.G5-Ch; 13F5.G5 chimeric Ab
Stoichiometry (recombinant human IL-1β [3]): 1.7
Kd (recombinant human IL-1β [4]): 0.462 nM
koff (recombinant human IL-1β [4]): 0.000654 s⁻¹
kon (recombinant human IL-1β [4]): 1.41e+06 M⁻¹ s⁻¹
Potency (IC50) M, MRC-5 bioassay (recombinant human IL-1β [5]): 0.53 nM

B3: mouse anti-mouse IL-1α monoclonal antibody 9H10 (antibody, V domains shown)
VH: QVILKESGPGILQPSQTLSLTCSFSGFSLSTYGTAVNWIRQPSGKGLEWLAQIGSDDRKLYNPFLKSRITLSEDTSNSQVFLKITSVDTEDSATYYCANGVMEYWGLGTSVTVSS
VL: SIVMTQTPKFLLVSAGDRVTITCKASQSVNHDVAWYQQMPGQSPKLLIYFASNRYTGVPDRFTGSGYGTDFTFTISTVQAEDLAVYFCQQDYSSPYTFGGGTKLEIKR
notes: Mouse mAb from IL-1αβ double KO mice; also called anti-IL-1α (9H10)
Kd (murine IL-1α [6]): 0.173 nM
IC50 (M), in vitro potency (murine IL-1α [7]): 2e-10 M

B4: mIL-1α/β DVD-Ig binding protein (bispecific antibody, mouse IgG2a, kappa)
heavy: EVQLQQSGPELVKPGTSVKMSCKTSGYTFTSYVMHWVKQKPGQGLEWIGYIIPYNDNTKYNEKFKGKATLTSDKSSSTAYMELSSLTSEDSAVYYCARRNEYYGSSFFDYWGQGTTLTVSSAKTTAPSVYPLAPQVILKESGPGILQPSQTLSLTCSFSGFSLSTYGTAVNWIRQPSGKGLEWLAQIGSDDRKLYNPFLKSRITLSEDTSNSQVFLKITSVDTEDSATYYCANGVMEYWGLGTSVTVSSAKTTAPSVYPLAPVCGDTTGSSVTLGCLVKGYFPEPVTLTWNSGSLSSGVHTFPAVLQSDLYTLSSSVTVTSSTWPSQSITCNVAHPASSTKVDKKIEPRGPTIKPCPPCKCPAPNLLGGPSVFIFPPKIKDVLMISLSPIVTCVVVDVSEDDPDVQISWFVNNVEVHTAQTQTHREDYNSTLRVVSALPIQHQDWMSGKEFKCKVNNKDLPAPIERTISKPKGSVRAPQVYVLPPPEEEMTKKQVTLTCMVTDFMPEDIYVEWTNNGKTELNYKNTEPVLDSDGSYFMYSKLRVEKKNWVERNSYSCSVVHEGLHNHHTTKSFSRTPGK
light: DIQMTQSPASLSASVGETVTITCRGSGILHNYLVWYQQKQGKSPQLLVYSAKILADGVPSRFSGSGSGTQYSLKINSLQPEDFGSYYCQHFWSTPFTFGSGTKLEIKRADAAPTVSIFPPSIVMTQTPKFLLVSAGDRVTITCKASQSVNHDVAWYQQMPGQSPKLLIYFASNRYTGVPDRFTGSGYGTDFTFTISTVQAEDLAVYFCQQDYSSPYTFGGGTKLEIKRADAAPTVSIFPPSSEQLTSGGASVVCFLNNFYPKDINVKWKIDGSERQNGVLNSWTDQDSKDSTYSMSSTLTLTKDEYERHNSYTCEATHKTSTSPIVKSFNRNEC
notes: V(anti-mIL-1β 10G11)-linker-V(anti-mIL-1α 9H10)-murine constant region (Cγ2a and Cκ); also called mDVD4-Ig; murine IL-1α/β DVD4-Ig
Kd (murine IL-1β [1]): 0.694 nM
Kd (murine IL-1α [6]): 0.766 nM
IC50 (M), in vitro potency (murine IL-1β [2]): 8e-10 M
IC50 (M), in vitro potency (murine IL-1α [7]): 2e-09 M

B5: chimeric 3D12.E3 antibody (antibody, V domains shown)
VH: QIQLVQSGPELKKPGETVKISCKASGYTFRNYGMNWVKQAPGKDLKRMAWINTYTGESTYADDFKGRFAFSLETSASTAYLQINNLKNEDTATYFCARGIYYYGSSYAMDYWGQGTSVTVSS
VL: NIQMTQTTSSLSASLGDRVTISCRASQDISNCLNWYQQKPDGTVKLLIYYTSRLHSGVPSRFSGSGSGTDYSLTISNLEQEDIATYFCQQGKTLPYAFGGGTKLEINR
notes: Murine variable domains on human Cγ1 and human Cκ constant regions (3D12.E3-VH-hCγ1, 3D12.E3-VL-hCκ); also called 3D12.E3-Ch; 3D12.E3 chimeric Ab
Stoichiometry (recombinant human IL-1α [8]): 1.6
Kd (recombinant human IL-1α [9]): 1.34 nM
koff (recombinant human IL-1α [9]): 0.000552 s⁻¹
kon (recombinant human IL-1α [9]): 412000 M⁻¹ s⁻¹
Potency (IC50) M, MRC-5 bioassay (recombinant human IL-1α [10]): 0.7 nM

B6: murine monoclonal antibody 6H3.1A4.3E11 (antibody, V domains shown)
VH: QVQLQQPGAELVRPGASVKLSCKASGYTFTTYWMNWVKQRPEQGLEWIGRIDPYDSETLYSQKFKDTAILTVDKSSSTAYMQLSSLTSEDSAVYYCARYGFDYWGQGTTLTVSS
VL: QIVLTQSPALMSASPGEKVTMTCSASSSVNYMYWYQQKPRSSPKPWIYLTSNLASGVPARFSGSGSGTSYSLTISSMEAEDAATYYCQQWNSNPYTFGGGTKLEMKR
notes: Murine hybridoma mAb, anti-hIL-1α
Kd (recombinant human IL-1α [11]): 0.354 nM
IC50 (M), MRC-5 bioassay (recombinant human IL-1α [12]): 2.4e-10 M
Kd (recombinant human IL-1α [13]): 0.354 nM
IC50 (M), MRC-5 bioassay (inhibition of IL-8 production) (recombinant human IL-1α [14]): 2.4e-10 M

B7: murine monoclonal antibody 18F4.2C8 (antibody, V domains shown)
VH: EVQLQQSGAELVKPGASVKLSCTASGLNIKDTYMHWLKQRPEQGLEWIGRIDPANGNAKYDPRFLGKATITADTSSNTAYLQLSSLTSEDTAVYYCARGDGNFHFDYWGQGTTLTVSS
VL: DIVMTQSQRFMSTSVGDRVSVTCKASQNVGTNIAWYQQKPGQSPRALIYSASYRYSGVPDRFTGSGSGTDFTLTISNVQSVDLAEYFCQQYTRYPLTFGGGTKLEIKR
notes: as for B6
Kd (recombinant human IL-1α [11]): 0.578 nM
IC50 (M), MRC-5 bioassay (recombinant human IL-1α [12]): 3.3e-10 M
Kd (recombinant human IL-1α [13]): 0.595 nM
IC50 (M), MRC-5 bioassay (inhibition of IL-8 production) (recombinant human IL-1α [14]): 8.9e-11 M
